{
  "source": "patent US20220144936A1",
  "key": {"[1]": {"biological_target": "recombinant human IL17A protein (human) (UniProt Q16552)", "sequence (Q16552 24-155 limits assumed)": "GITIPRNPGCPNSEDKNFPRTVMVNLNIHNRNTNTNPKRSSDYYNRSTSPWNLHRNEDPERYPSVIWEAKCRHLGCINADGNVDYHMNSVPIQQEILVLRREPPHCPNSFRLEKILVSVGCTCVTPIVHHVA", "assay": "cell-based or functional assay"}, "[2]": {"biological_target": "recombinant human IL17A/F dimer protein (SinoBiological, Inc., CT047-HNAE) (human) (UniProt Q16552)", "sequence (Q16552 24-155 limits assumed, chain 1 of 2)": "as the sequence (Q16552 24-155 limits assumed) above", "sequence (Q96PD4 31-163 limits assumed, chain 2 of 2, further chain)": "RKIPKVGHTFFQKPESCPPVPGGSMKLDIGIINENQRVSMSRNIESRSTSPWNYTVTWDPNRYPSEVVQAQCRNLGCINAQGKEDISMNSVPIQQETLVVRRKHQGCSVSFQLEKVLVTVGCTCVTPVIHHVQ", "assay": "competition ELISA: IL17RA-Fc coated (competitor), IL17A/F-Biotin at 0.8 µg/mL, antibody varied"}, "[3]": {"biological_target": "recombinant human IL17A/F dimer protein (SinoBiological, Inc., CT047-HNAE) (human) (UniProt Q16552)", "assay": "cell-based or functional assay"}, "[4]": {"biological_target": "recombinant human IL17A protein (human) (UniProt Q16552)", "assay": "competition ELISA: IL17A coated, competitor IL17RA-His-biotin at 2 µg/mL, antibody varied"}, "[5]": {"biological_target": "recombinant human IL17A/F dimer protein (SinoBiological, Inc., CT047-HNAE) (human) (UniProt Q16552)", "assay": "ELISA: IL17A/F coated at different concentrations, antibody fixed at 2 µg/mL, anti-human IgG Fc/HRP; EC50 is on the antigen concentration"}, "[6]": {"biological_target": "recombinant human IL17A protein (human) (UniProt Q16552)", "assay": "ELISA: IL17A coated at different concentrations, antibody fixed at 2 µg/mL, anti-human IgG Fc/HRP; EC50 is on the antigen concentration"}, "[7]": {"biological_target": "recombinant human IL17A protein (human) (UniProt Q16552)", "assay": "Octet (BLI), biotinylated IL17A, antibody 0.90-13.9 nM"}, "[8]": {"biological_target": "recombinant human IL17A/F dimer protein (SinoBiological, Inc., CT047-HNAE) (human) (UniProt Q16552)", "assay": "Octet (BLI), biotinylated IL17A/F, antibody 0.90-13.9 nM"}},
  "data": [
    {"substance": "Taltz biosimilar (SinoCelltech Co., Ltd.) (antibody)", "values": [
      {"measurement": "EC50 of blocking IL17A-induced IL-6 secretion of HFF cells", "setting": "[1]", "result": 0.247, "unit": "mg/L"},
      {"measurement": "maximum inhibition rate of IL17A-induced IL-6 secretion of HFF cells", "setting": "[1]", "result": 97.3, "unit": "%"},
      {"measurement": "maximum inhibition rate", "setting": "[2]", "result": 75, "unit": "%"}
    ]},
    {"substance": "Taltz (Eli Lilly) (antibody)", "values": [
      {"measurement": "EC50 (µg/mL), blocking IL17A/F-induced IL6 secretion of HFF cells", "setting": "[3]", "result": 1.1, "unit": "µg/mL"},
      {"measurement": "Maximum neutralization rate (%), IL17A/F-induced IL6 secretion of HFF cells", "setting": "[3]", "result": 76.3, "unit": "%"},
      {"measurement": "EC50 (µg/mL), blocking IL17A-induced IL6 secretion of HFF cells", "setting": "[1]", "result": 0.19, "unit": "µg/mL"},
      {"measurement": "Maximum neutralization rate (%), IL17A-induced IL6 secretion of HFF cells", "setting": "[1]", "result": 95.9, "unit": "%"},
      {"measurement": "IC50", "setting": "[4]", "result": 0.5, "unit": "mg/L"},
      {"measurement": "maximum inhibition rate", "setting": "[4]", "result": 89.5, "unit": "%"}
    ]},
    {"substance": "COSENTYX biosimilar (SinoCelltech Co., Ltd.) (antibody)", "values": [
      {"measurement": "EC50", "setting": "[5]", "result": 0.0639, "unit": "mg/L"},
      {"measurement": "EC50", "setting": "[6]", "result": 0.0748, "unit": "mg/L"}
    ]},
    {"substance": "COSENTYX (Norvatis, SHM12) (antibody)", "values": [
      {"measurement": "EC50 (µg/mL), blocking IL17A/F-induced IL6 secretion of HFF cells", "setting": "[3]", "result": 2.25, "unit": "µg/mL"},
      {"measurement": "Maximum neutralization rate (%), IL17A/F-induced IL6 secretion of HFF cells", "setting": "[3]", "result": 79.5, "unit": "%"},
      {"measurement": "EC50 (µg/mL), blocking IL17A-induced IL6 secretion of HFF cells", "setting": "[1]", "result": 0.22, "unit": "µg/mL"},
      {"measurement": "Maximum neutralization rate (%), IL17A-induced IL6 secretion of HFF cells", "setting": "[1]", "result": 51.6, "unit": "%"},
      {"measurement": "Kd", "setting": "[7]", "result": 0.0955, "unit": "nM"},
      {"measurement": "Kd", "setting": "[8]", "result": 1.1, "unit": "nM"}
    ]}
  ]
}
